This is an account of results in PMC6982183 (International Journal of Molecular Sciences, 2019).

This experiment concerns the target α-synuclein (human, UniProt P37840 1-140). Nature of the experiment: quartz crystal microbalance (QCM); α-synuclein (1 μM) immobilised by amine coupling; 2.5, 5, 10, 15, 20 nM AD(Cys) added; citrate buffer (pH 4.0); kon, koff from linear regression of kobs against concentration. The note with it: both partners purified.

B1: Hsp60 AD(Cys), isolated apical domain of human Hsp60 with cysteines at the N- and C-termini (domain or fragment)
chain: CGMKFDRGYISPYFINTSKGQKCEFQDAYVLLSEKKISSIQSIVPALEIANAHRKPLVIIAEDVDGEALSTLVLNRLKVGLQVVAVKAPGFGDNRKNQLKDMAIATGGAVFGEEGLTLNLEDVQPHDLGKVGEVIVTKDDAMLLKGKGDKAQIEKRIQEIIEQLDVTTSEYEKEKLNERLAKLSDC
modifications: disulfide bond between the two engineered cysteines at the N- and C-termini
notes: Cysteine introduced at the N-terminus; the primer ACCATGTGCGGCATGAAATTCGATCGCGGTT encodes Met-Cys-GMKFDRG; Apical domain of human Hsp60; Cysteine introduced at the C-terminus of the domain, before the His6 tag; the primer AGTGATTGCCACCACCACCACCACCACTGA encodes SD-Cys-HHHHHH-stop; A start Met precedes the N-terminal Cys in the construct; Monomer by gel filtration; also called …
As usually defined, the Kd is the equilibrium constant for the complex coming apart. Higher therefore signals weaker binding. As usually defined, the koff is the first-order rate constant of dissociation. Low readings indicate a long-lived complex, high ones a short-lived complex. The kon is a measure of how fast the partners come together. Turning to B1, binding was characterised by a dissociation constant (Kd) of 5.04 nM, the koff came out at 0.00295 s⁻¹ and the kon worked out at 585000 M⁻¹ s⁻¹.
